Data reported in PMC7983153 (The Biochemical journal, 2018).

Experiments:
MtTSPS = MtTSPS (Medicago truncatula, UniProt G7K2D1); experiment: X-ray crystallography, […] Å; settings: co-crystallization, 10-molar excess of ligand, pH 6.5; polyamine-binding groove
[1] = target: MtTSPS-R37E mutant (Medicago truncatula); experiment: SEC
[2] = target: thermospermine synthase from Medicago truncatula (MtTSPS) (Medicago truncatula); experiment: crystal structure
[3] = target: thermospermine synthase from Medicago truncatula (MtTSPS) (Medicago truncatula); experiment: SAXS

With NCCCCNCCCNCCCN [TSPM, thermospermine] the “X-ray crystallography, 1.65 Å” value (MtTSPS) was “TSPM in the MtTSPS-TSPM complex is bound with aminopropyl group pointing outside the pocket”.

For MtTSPS-R37E mutant (enzyme), the stoichiometry N [1] was 2.

Molecule “thermospermine synthase from Medicago truncatula (MtTSPS) (enzyme)” has a stoichiometry N [2] of 4 and a stoichiometry N [3] of 4.
